Data reported in article PMC2868043, “The Yeast Cell Fusion Protein Prm1p Requires Covalent Dimerization to Promote Membrane Fusion” (PLoS ONE, 2010).

B1: Prm1-GFP (natural protein, S. cerevisiae, UniProt P53835 1-661, looked up)
chain: MSGFKCYLQLGDRLSQIWLNKYTLVLLLAMLKLLFFSKSIQHAIEVSETYILSNCYSIDSLYSKMTDNTPHYLGIMGNYLIEKGMEETVKATLETLSLIVYASEGLVNFAIDLYLGTYACLIVSAVDGTVDVATNITEKLISLVNDTVSSVANELDTGLNDISKIINKVIKAASKVENFFTGDDDDSNMTSSIKSVNLTISALHNLYIPSSINDKLEELSAKTPDFAQVKNTTKNLISVPFNEVRKNIKAVNASNIIGDTSVLYVPPVSLDNSTGICSSNQSEILAFYSILGHVLKIATVVCITVLICFAVGAMAPVAWNEIKLWRRLCGMRDHYMLSRQDSYTSFSSENTHELKDPFRDPPIQNGQYDVIASYQQCFQTWNTRIAGWMTNLVTFGKSPENIDPKTKQKIEWVVAYMTSERALCVLGIGLLGILVCICQFVMIALLKHKISHSLTSNDGDGVQNLLKSSTAVDIENQMSLWSVQTNKYINTTETNINQEVFGWINTTTLSVNNTVATMISDIDTTLADVFNGTLLYNPMKTVVGCAIENKLYTIEKAMTWIHDKAQLHIPRINGTQIKQALAKQTDNSTIPTASSTSAATENLLENLVNDMREGLLKILRAYHRITLGELTVALVILAVWLVQLPIALVILRLRLRKATFD
notes: Prm1p, mating-specific multipass membrane protein of S. cerevisiae; monomer 73 kD; Glycosylated (sugar modifications); Forms a disulfide-linked homodimer; also called Prm1p; source: S. cerevisiae (W303 derivatives), PRM1 promoter, induced with α-factor or by mating; in whole cell lysate or Triton X-100 solubilised membranes; not shown: GFP, C-terminal, kept
B2: HA-Prm1p (natural protein, S. cerevisiae, UniProt P53835 1-661, looked up)
chain: MSGFKCYLQLGDRLSQIWLNKYTLVLLLAMLKLLFFSKSIQHAIEVSETYILSNCYSIDSLYSKMTDNTPHYLGIMGNYLIEKGMEETVKATLETLSLIVYASEGLVNFAIDLYLGTYACLIVSAVDGTVDVATNITEKLISLVNDTVSSVANELDTGLNDISKIINKVIKAASKVENFFTGDDDDSNMTSSIKSVNLTISALHNLYIPSSINDKLEELSAKTPDFAQVKNTTKNLISVPFNEVRKNIKAVNASNIIGDTSVLYVPPVSLDNSTGICSSNQSEILAFYSILGHVLKIATVVCITVLICFAVGAMAPVAWNEIKLWRRLCGMRDHYMLSRQDSYTSFSSENTHELKDPFRDPPIQNGQYDVIASYQQCFQTWNTRIAGWMTNLVTFGKSPENIDPKTKQKIEWVVAYMTSERALCVLGIGLLGILVCICQFVMIALLKHKISHSLTSNDGDGVQNLLKSSTAVDIENQMSLWSVQTNKYINTTETNINQEVFGWINTTTLSVNNTVATMISDIDTTLADVFNGTLLYNPMKTVVGCAIENKLYTIEKAMTWIHDKAQLHIPRINGTQIKQALAKQTDNSTIPTASSTSAATENLLENLVNDMREGLLKILRAYHRITLGELTVALVILAVWLVQLPIALVILRLRLRKATFD
notes: Prm1p, S. cerevisiae, under control of the GAL1 promoter; also called GALPRO-HA-PRM1; source: S. cerevisiae (W303 derivative), genomic GAL1 promoter fusion, galactose induced; in whole cell lysate
B3: Prm1-myc (natural protein, S. cerevisiae, UniProt P53835 1-661, looked up)
chain: MSGFKCYLQLGDRLSQIWLNKYTLVLLLAMLKLLFFSKSIQHAIEVSETYILSNCYSIDSLYSKMTDNTPHYLGIMGNYLIEKGMEETVKATLETLSLIVYASEGLVNFAIDLYLGTYACLIVSAVDGTVDVATNITEKLISLVNDTVSSVANELDTGLNDISKIINKVIKAASKVENFFTGDDDDSNMTSSIKSVNLTISALHNLYIPSSINDKLEELSAKTPDFAQVKNTTKNLISVPFNEVRKNIKAVNASNIIGDTSVLYVPPVSLDNSTGICSSNQSEILAFYSILGHVLKIATVVCITVLICFAVGAMAPVAWNEIKLWRRLCGMRDHYMLSRQDSYTSFSSENTHELKDPFRDPPIQNGQYDVIASYQQCFQTWNTRIAGWMTNLVTFGKSPENIDPKTKQKIEWVVAYMTSERALCVLGIGLLGILVCICQFVMIALLKHKISHSLTSNDGDGVQNLLKSSTAVDIENQMSLWSVQTNKYINTTETNINQEVFGWINTTTLSVNNTVATMISDIDTTLADVFNGTLLYNPMKTVVGCAIENKLYTIEKAMTWIHDKAQLHIPRINGTQIKQALAKQTDNSTIPTASSTSAATENLLENLVNDMREGLLKILRAYHRITLGELTVALVILAVWLVQLPIALVILRLRLRKATFD
notes: Prm1p, mating-specific multipass membrane protein of S. cerevisiae; Made by replacing the GFP of the PRM1-GFP plasmid with the tag of a PRM1-myc strain, so the tag is probably C-terminal; also called Prm1p; source: S. cerevisiae (W303 derivatives), PRM1 promoter, mating cells; in Triton X-100 solubilised membranes, or purified by α-myc immunoprecipitation

Legend:
[1] = target: the molecule itself; assay: non-reducing SDS-PAGE and Western blot; whole cell lysate, reducing agent omitted from the sample buffer; cells induced with 10 µg/ml α-factor for 90 min (GFP alleles, anti-GFP blot) or with galactose (HA-PRM1, anti-HA blot); shows only SDS-resistant covalent dimers
[2] = target: the molecule itself; assay: non-reducing SDS-PAGE + affinity purification with mass spectrometry; Prm1p purified from mating cells under native conditions by α-myc immunoprecipitation, eluted with 2% SDS, 10% bis-Tris gel, colloidal blue staining; unreduced sample analysed by mass spectrometry (data not shown)

Row | Protein | stoichiometry N [1] | stoichiometry N [2]
1 | B1 | 2 | –
2 | B2 | 2 | –
3 | B3 | – | 2
